The source of these data is patent publication US20240117065A1.

Holding throughout (assay): cell-based or functional assay
Assay [1] deals with Catalytically active human CD73 (biochemical assay) (human) (UniProt P21589).
Assay [2] addresses Catalytically active mouse CD73 (biochemical assay) (mouse) (UniProt Q61503).
For assay [3], the target named is Membrane-bound CD73 in MDA-MB-231 cells (UniProt P21589).
Assay [4] concerns the target Membrane-bound human CD73 (internalisation assay) (human) (UniProt P21589).
In assay [5] the target is Membrane-bound mouse CD73 (internalisation assay) (mouse) (UniProt Q61503).
In assay [6] the target is Soluble CD73 in MDA-MB-231 cells (UniProt P21589).

In the case of MEDI9447 (antibody), the % Inhibition of CD73 (biochemical assay), Human in assay [1] worked out at 42.3%. The same substance gave a % Inhibition of CD73 (biochemical assay), Mouse in assay [2] of 49.1%. In assay [3], this substance came in with a % Inhibition of CD73 (cell-based assay), Membrane-bound of 42%; a Max % Act Mean of 41.8%; a Max % Act n = 1 of 35.5%; a Max % Act n = 2 of 48%. Further, in assay [4], the % internalisation of membrane-bound CD73, Human stood at 58%; the Human % Inh, n = 1 (receptor internalisation assay) was 49.9%; the Human % Inh, n = 2 (receptor internalisation assay) is 66.2%. In assay [5], this substance came in with a % internalisation of membrane-bound CD73, Mouse of 70.9%; a Murine % Inh, n = 1 (receptor internalisation assay) of 62.5%; a Murine % Inh, n = 2 (receptor internalisation assay) of 79.4%. The % Inhibition of CD73 (cell-based assay), soluble in assay [6] turned out to be 40%.
Turning to BMS-986179 (antibody), the % Inhibition of CD73 (biochemical assay), Human in assay [1] came to 20%. The % Inhibition of CD73 (biochemical assay), Mouse in assay [2] amounted to 21.3%. Further, in assay [3], the % Inhibition of CD73 (cell-based assay), Membrane-bound is 29.9%; the Max % Act Mean worked out at 31%; the Max % Act n = 1 amounted to 30%; the Max % Act n = 2 was 32%. In assay [4], this substance had a % internalisation of membrane-bound CD73, Human of 61.7%; a Human % Inh, n = 1 (receptor internalisation assay) of 8.99%; a Human % Inh, n = 2 (receptor internalisation assay) of 61.7%. In assay [5], this substance had a % internalisation of membrane-bound CD73, Mouse of 7.14%; a Murine % Inh, n = 1 (receptor internalisation assay) of 5.18%; a Murine % Inh, n = 2 (receptor internalisation assay) of 9.09%. In assay [6], this substance returned a % Inhibition of CD73 (cell-based assay), soluble of 10.4%.
In assay [3], IgG1K (antibody) had a Max % Act Mean of 3.5% and a Max % Act n = 2 of 3.5%.
Substance IPH53 (antibody) showed a % Inhibition of CD73 (biochemical assay), Human in assay [1] of 91.3%. In assay [2], this substance gave a % Inhibition of CD73 (biochemical assay), Mouse of 17.8%. In assay [3], this substance displayed a % Inhibition of CD73 (cell-based assay), Membrane-bound of 68.2%; a Max % Act Mean of 68.8%; a Max % Act n = 1 of 69.5%; a Max % Act n = 2 of 68%. In assay [4], this substance showed a % internalisation of membrane-bound CD73, Human of 47.5%; a Human % Inh, n = 1 (receptor internalisation assay) of 49%; a Human % Inh, n = 2 (receptor internalisation assay) of 46%. In assay [5], the % internalisation of membrane-bound CD73, Mouse stood at 6.46%; the Murine % Inh, n = 1 (receptor internalisation assay) turned out to be 5.18%; the Murine % Inh, n = 2 (receptor internalisation assay) is 7.74%. This substance yielded a % Inhibition of CD73 (cell-based assay), soluble in assay [6] of 77.1%.
